Patent US20090082270A1 (ACCELERON PHARMA, published 2009)

T1: human Cerberus (human, UniProt O95813 18-267, limits assumed)
T1 construct: it includes the native leader
T1 sequence: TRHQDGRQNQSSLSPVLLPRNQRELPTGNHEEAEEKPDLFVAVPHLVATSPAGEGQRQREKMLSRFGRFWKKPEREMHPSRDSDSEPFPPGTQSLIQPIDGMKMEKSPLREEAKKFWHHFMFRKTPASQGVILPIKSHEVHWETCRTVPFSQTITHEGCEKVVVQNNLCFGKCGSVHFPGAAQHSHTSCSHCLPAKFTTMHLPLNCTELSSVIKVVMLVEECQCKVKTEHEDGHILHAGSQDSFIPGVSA

B1: Activin A (ligand, UniProt P08476 311-426, looked up)
chain: GLECDGKVNICCKKQFFVSFKDIGWNDWIIAPSGYHANYCEGECPSHIAGTSGSSLSFHSTVINHYRMRGHSPFANLKSCCVPTKLRPMSMLYYDDGQNIIKKDIQNMIVEECGCS

Columns and labels:
[1] = molecular target: T1, human Cerberus; assay: "similar experiments" to the A-204 reporter gene assay; method not further described
[2] = molecular target: B1; assay: as above

Row | binding result [1] | binding result [2] | Binder
1 | no binding | – | B1
2 | – | no binding | Human Coco, full length, Fc (TGGG linker and mFc) (Fc fusion, Tested as conditioned medium; also called Coco-mFc; human Coco-mFc) GRPEPQSPRPQSWAAANQTWALGPGALPPLVPASALGSWKAFLGLQKARQLGMGRLQRGQDEVAAVTLPLNPQEVIQGMCKAVPFVQVFSRPGCSAIRLRNHLCFGHCSSLYIPGSDPTPLVLCNSCMPARKRWAPVVLWCLTGSSASRRRVKISTMLIEGCHCSPKATGGGTHTCPPCPAPELLGGPSVFLFPPKPKDTLMISRTPEVTCVVVDVSHEDPEVKFNWYVDGVEVHNAKTKPREEQYNSTYRVVSVLTVLHQDWLNGKEYKCKVSNKALPVPIEKTISKAKGQPREPQVYTLPPSREEMTKNQVSLTCLVKGFYPSDIAVEWESNGQPENNYKTTPPVLDSDGSFFLYSKLTVDKSRWQQGNVFSCSVMHEALHNHYTQKSLSLSPGK
